Patent US10487307B2, “Culture method for pluripotent stem cells” (FUJIFILM CORPORATION, priority 2013, dated 2019)

B1: RCP-1: recombinant polypeptide for culture, SEQ ID NO: 15; human vitronectin positions 1-55 and 269-459 with N-terminal methionine (protein)
chain: MDQESCKGRCTEGFNVDKKCQCDELCSYYQSCCTDYTAECKPQVTRGDVFTMPEDEPSQEECEGSSLSAVFEHFAMMQRDSWEDIFELLFWGRTSAGTRQPQFISRDWHGVPGQVDAAMAGRIYISGMAPRPSLAKKQRFRHRNRKGYRSQRGHSRGRNQNSRRPSRATWLSLFSSEESNLGANNYDDYRMDWLVPATCEPIQSVFFFSGDKYYRVNLRTRRVDTVDPPYPRSIAQYWLGCPAPGHL
modifications: Vitronectin-derived Recombinant Protein (RCP-1)
B2: RCP-11: recombinant polypeptide for culture, SEQ ID NO: 25; vitronectin positions 1-55, 269-277, 295-341, 342-373, C274S (protein)
chain: MDQESCKGRCTEGFNVDKKCQCDELCSYYQSCCTDYTAECKPQVTRGDVFTMPEDESQEESEGSEDIFELLFWGRTSAGTRQPQFISRDWHGVPGQVDAAMAGRIYISGMAPRPSLAKKQRFRHRNRKGYRSQRGHSRGRNQN
modifications: Vitronectin-derived Recombinant Protein (RCP-11)
notes: vitronectin positions 1-55, 269-277, 295-341, 342-373, C274S

Columns and labels:
[1] = Evaluation of adsorbability with respect to cell culture surface (OPA fluorescence); format: physicochemical; details: FIG. 1; 0 to 200 pmol/cm^2 added, 2 hours at 37° C., washed twice with PBS
Method: Each of the polypeptides of RCP-1 to RCP-11 and RCP-21 to RCP-26 obtained as above was diluted with a predetermined buffer such that they could be added to wells at a predetermined final concentration of 0 pmol/cm^2 to 200 pmol/cm^2. Thereafter, each of the polypeptides was added in an amount of 64 μL to a plasma-treated 96-well plate made of polystyrene (Tissue Culture-Treated, Falcon). Each of the polypeptides was allowed to adsorb onto the plate by being incubated for 2 hours at 37° C., and then the wells were washed twice with PBS, thereby obtaining surfaces coated with each of the polypeptides of RCP-1 to RCP-11 and RCP-21 to RCP-26.
Among the surfaces coated with each of the polypeptides obtained as above, the surfaces coated with RCP-1 and RCP-21 to RCP-26 were applied with 64 μL of a borate buffer and 64 μL of 1 N NaOH, followed by incubation for 24 hours at 80° C. and 100% humidity. After the resultant was air-cooled, 75 μL of a borate buffer was added to each well, and 50 μL of a reaction solution obtained by mixing OPA (o-phthalaldehyde: Wako Pure Chemical Industries, Ltd./methanol solution (160 mg/ml)) with N-acetyl-L-cysteine (NAC: Wako Pure Chemical Industries, Ltd.)/borate buffer solution (2 mg/ml) at a ratio of 1:100 (mass ratio) was further added thereto. After incubation for 30 minutes at 40° C., the fluorescence intensity thereof was measured by using an Envision Multilabel Counter (PerkinElmer Inc.) (excitation 355 nm/fluorescence 486 nm). A calibration curve was separately prepared from each of the polypeptide solutions so as to calculate the amount of the polypeptide adsorbed. In FIG. 1, a black rhombus indicates RCP-1, a black square indicates RCP-21, a black triangle indicates RCP-22, a black circle indicates RCP-23, a white rhombus indicates RCP-24, a white square indicates RCP-25, and a white triangle indicates RCP-26.

iPS cells [2] = test: Growth evaluation, growth curves over 8 days; format: cell-based, human
Method: The iPS cells collected in the same manner as in <Cell adhesiveness evaluation 1> were seeded into a 96-well plate, onto which RCP-1, RCP-21, and natural human vitronectin were adsorbed, at a ratio of 250 cells/well and cultured for 8 days in a 5% CO2 incubator at 37° C. The number of adhesive cells after different days of culture was measured in the same manner as in <Cell adhesiveness evaluation 1>, thereby obtaining growth curves. […] In FIG. 2, a black rhombus indicates a case using RCP-1, and a black square indicates a case using RCP-21.
From the increase and decrease in the obtained number of cells, the doubling time was calculated. As a result, it was confirmed that it takes 46.4±2.1 hours for the number of cells to be doubled in a case where RCP-1 is used, and 67.7±2.1 hours in a case where RCP-21 is used.

iPS cells [3] = test: Evaluation of maintenance of undifferentiated state (reference examples); format: cell-based, human
Method: iPS cells collected in the same manner as in <Cell adhesiveness evaluation 1> were suspended in TeSR2. The iPS cells were seeded into 6-well plate (Tissue culture-treated, Falcon), onto which each of the samples 1, 2, 5, 6, and 7 used in <Cell adhesiveness evaluation 1> was adsorbed in the same manner as in <Cell adhesiveness evaluation 1>, and cultured in a CO2 incubator at 37° C. Except for the day after the seeding, the medium was replaced every day. In the same method as described above, the cells were subcultured every six days.
After being cultured for 1 month under the conditions described above, the cells were immobilized using 4% paraformaldehyde and treated with 1% Triton-X/PBS so as to enhance the membrane permeability. After the cells were subjected to a blocking treatment using an Image IT Signal Enhancer (Invitrogen), an anti-human NANOG antibody (AF 1997, R&D Systems, Inc.), an Alexa Fluor 555 binding rabbit anti-goat IgG antibody (Invitrogen), and DAPI (4′,6-diamidino-2-phenylindole, Dojindo Molecular Technologies, Inc.) were added thereto for labeling, and the cells were imaged using a fluorescence microscope.
FIGS. 3A and 4A show the iPS cells cultured on RCP-1; FIGS. 3B and 4B show the iPS cells cultured on RCP-11; FIGS. 3C and 4C show the iPS cells cultured on natural human vitronectin; FIGS. 3D and 4D show the iPS cells cultured on rLaminin-5; and FIGS. 3E and 4E show the iPS cells cultured on rLaminin-511. The scale bar in the images indicates […]. In FIGS. 3A to 3E, the images on the left side are full images of the colony, and the images on the right side are magnified images. In FIGS. 4A to 4E, the images on the left side are images of the cells stained with DAPI, and the images on the right side are images of the cells stained with an anti-NANOG antibody. The scale bar in FIGS. 3A to 4E indicates 200 μm.

iPS cells [4] = test: Cell growth property evaluation 2 (2-mercaptoethanol concentration in Essential 8); format: cell-based, human; details: RCP-11 100 μg/ml, 72 hours
Method: A cell culture surface coated with RCP-11 was prepared in the same manner as in <Cell growth property evaluation 1> of Example 1. iPS cells collected in the same manner as in <Cell growth property evaluation 1> were suspended in the respective media composed as shown in Table 12 and seeded into wells at a cell density of 10,000 cells/well. After the cells were cultured for 72 hours, the number of cells were quantified in the same manner as in <Cell growth property evaluation 1>, and the cell growth properties were evaluated based on a cell growth rate which is a ratio calculated by regarding the number of cells cultured using RPC-11 as being 100%.

iPS cells [5] = test: Example 5: cell growth on pretreated RCP-11 surface; format: cell-based, human
Method: Meanwhile, in the same manner as in <Cell growth property evaluation 1> of Example 3, iPS cells were collected and suspended in Essential 8. The iPS cells were then seeded into the respective wells, to which 2-mercaptoethanol was added so as to accelerate the desorption of RCP-11, at a cell density of 10,000 cells/well, thereby starting culture.
After the cells were cultured for 72 hours, the number of cells was quantified in the same manner as in <Cell growth property evaluation 1> of Example 3. In the table, each of the residual rate of RCP-11 adsorbed and the cell growth rate is expressed as a ratio calculated by regarding the residual rate of the polypeptide adsorbed and the cell growth rate in the case where the pretreatment with PBS is performed as being 100%.

Molecule	adsorbability with respect to the plate [1]	doubling time (iPS cells [2]; 250 cells/well, cultured for 8 days) [h]	cell growth properties (iPS cells [2]; FIG. 2)	form of iPS cell colony (iPS cells [3]; TeSR2, subcultured every six days, FIGS. 3A to 3E)	NANOG expression (iPS cells [3]; cultured for 1 month in TeSR2, anti-NANOG staining, FIGS. 4A to 4E)	Cell growth rate (iPS cells [4]; Essential8, 2-mercaptoethanol 0, 10,000 cells/well, this = 100%) [%]	Cell growth rate (iPS cells [4]; Essential8, 2-mercaptoethanol 10 μM (0.0000078% by mass)) [%]	Cell growth rate (iPS cells [4]; Essential8, 2-mercaptoethanol 10 μM (0.000078% by mass)) [%]	Cell growth rate (iPS cells [4]; Essential8, 2-mercaptoethanol 100 μM (0.00078% by mass)) [%]	Cell growth rate (iPS cells [4]; Essential8, 2-mercaptoethanol 1 mM (0.0078% by mass)) [%]	Cell growth rate (iPS cells [4]; Essential8, 2-mercaptoethanol 10 mM (0.078% by mass)) [%]	Cell growth rate (%) (iPS cells [5]; pretreatment 2-Mercaptoethanol 8.96 μM (0.00007% by mass), Essential 8, 72 hours, PBS pretreatment = 100%)	Cell growth rate (%) (iPS cells [5]; pretreatment 2-Mercaptoethanol 895.94 μM (0.007% by mass), Essential 8, 72 hours, PBS pretreatment = 100%)	Cell growth rate (%) (iPS cells [5]; pretreatment 2-Mercaptoethanol 89.6 mM (0.7% by mass), Essential 8, 10,000 cells/well, 72 hours, PBS pretreatment = 100%)	Cell growth rate (%) (iPS cells [5]; pretreatment PBS, Essential 8, 72 hours, this = 100%)
B1	excellent adsorbability	46.4 ± 2.1	higher cell growth properties compared to RCP-21	form specific to undifferentiated cells	strongly expressed NANOG in the entirety of the colony										
B2						100	104.1	97.3	49.2	38.7	40.2	85.2	70.7	38.0	100
